Assay results reported in US20140142160.

Test system: Ezh2 (native PRC2) (Mus musculus)
Assay: pulldown
Conditions: RIP-seq WT RPKM

Substance | binding signal (Ezh2-/- RPKM 0) [RPKM] | binding signal (Ezh2-/- RPKM 3.27) [RPKM]
Xist/RepA endogenous RNA | 4.18 | 
Tsix RNA |  | 10.3
